Here are results for 18 sequences from a protein production outcome set (Wang et al. 2014).

The nature of the data set: label from the status in PepcDB records.
Take “MTMPIFNISDDVDLVPAMPAEGRDGGSYRRQIWQDDVENGTIVAVWMAEPGIYNYAGRDLEETFVVVEGEALYSQADADPVKIGPGSIVSIAKGVPSRLEILSSFRKLATVIPKP”: the protein production result is recorded as “not failed”. As for “MTMRRVKGGLVQAVRVARGGAVAWLSLCMLMVGGQALAQQAITAPASNAVERVEQASTGESTVVTVTLKDTPAQKPVEFSTQQPARIAIDFFGTAFAQGRANYQYGGKLLRAASVVQIGDRTRVVLDLARQSQYKSEIRGNQYVLTLGAAPTASATPVPTFAAPAPTAGVERPSVRNIDFRRGEELAGRVVVDLSTSNSAINIAQQGQNLVVDFAGATLPQSLRRRFDVSDFGTPVQAMRATDNGTGARLVIEPRGNWQYSSYQTDTQFVVEVRPTKEDPNKLISGPGYRGERMSLNFQNIDIRSLLQVFADFTNLNIVTSDSVTGTLSLRLKDVPWDQALQIVLDSKGLASRRNGNVLWVAPRNELATKEKAELESQQQVTELEPLRSQVFRLNYQRADDVRNMLLGTGGTAGGGAAASRILSKRGSLTSDARTNQLFVSDIPSKLEEVQAFLLKIDIPVRQVMIEARIVEADDTFSRNLGAKLGFAAKTNGAGYGNTYSNVVSPVTKDATWDNSAAVSLPANGINGVNAASVAVSLFNAGAGRFLALELSALEADGRGKIISSPRVVTADNIKALIEQGTEVPYQQATSSGATSVSFKKANLKLEVTPKITPDGNVFLDVDVNKDSLGTQTTNGFAINTKHVQTQVLVENGGTVVIGGIYTQNERTDVNKVPLLGDIPVLGNLFKSTAKTNDRTELLVFLTPRVLSDQLSLK”, the protein production entry is reported as “failed”. On to “MTMTLSAKDLENISKLAYLNEDSEHSAKLTQEVSAIMDFVDQLKTIDTSQIAPLFHPLALNQRLRPDEVTEAECLAELEAMAPLFEDNLYLVPKVISSDK”, for which the protein production result is reported as “failed”. Take “MTMTRTPLTQAAATLKARFREIGYTTSGINNVLGPDFVAAMHAGQPAAVRFHLDSLPESDLNLALRAFVLRDQVRVEKLAALLGEALKTLVDASLVEISGEYAQFLIDIRPHLIAGRQQWVFSDADASMTQHVPGPDHVLGVGAASLSLLQATPTSPTGSVLDLGTGSGIQVLGQAGAAQEIIATDVHPRALDFAEATLVDSGIPTQLVEGSWFEPVRGRTFDRIIANPPFVVGPPEIGHVYRDSGMDLDGATALVVKEACAHLNPGGTAHLLGAWVHSADQSWQQRVAEWLPDNGYVAWVIERDAVSPAQYVGTWLSDESLDLRSPEAAARTTAWLNHFEKAKVQGVGFGFIAIQRLEEDEADEKSDILAESMTQYFEDPLGPEIEEYFTRTAWLREQTRDSILSSRFKVRPGVAREQISLADAEEGMGFSPVTLRLTRTDGPRWSHDVDEHVASIVAGLNPHGLPFEEILEMYAMAQGIEGESLHNGAIAALVDLIRHGLVLPADLLDS”: the protein production entry is reported as “failed”. As to “MTNAGTTDLSWLPSDADEQLALGFKIVTNAYKTRVTSQEAEIRSLKGQLTEKQEQLSSIQKKYSNLEVQLIESTQRGNQLADENKQLITTIKKLNRDIDRLENLKKAVLNSIQEEHDVEDAHKYYSADDLLQTTAPRTMLEMNGNEDSCQSIINKIVNSDTHNIINGSFNSPYIGNVPLGEKNTDGRAFFRNARSRLSYEQFNQFLSNIKKLNNHQQKREETLKKAQAIFGEANLDLYEEFKVLISKHS”, the protein production result is recorded as “failed”. As for “MTNAIQDRLPRTTNSVEDTMALGARIAQGLSPGAVVALYGDLGTGKTHFVKGVAQGLGLPPAEVRSPTFTILAVHDDGDRPLYHFDAYRVQTPDEFVELGFETYVHGDGLTCIEWAGRVADLLPADTVPLQFHHVAPSTRRITLGAPLEHHHHHH”, the entry is “not failed”. As to “MTNDDSLKTYRAKRDFSVTPEPSGVASGKTAIKSTAKVLSFVVQKHWATRLHYDFRLELEGTMKSWAVPKGPSFDPNDKRMAVHVEDHPISYNSFEGEIPSGQYGAGKVIIWDKGTWIPLEDPHKGYRDGKLKFELRGLKLKGHWALVRMRKEENKKQEPWLLIKEKDEYVRSSREYSVVDEMPDSVAELDVPDVPQPSKASATSGSSSPKSSSIFRKGTKTTLPDNARKAELPRTLTPELATLVDEPPVDPEEWIYEIKFDGYRMLSRIEGGEVRLITRNGNDWSHKLPHLIKALGKLKLKSSWLDGEIAVLDENGIPDFQSLQNAFDSAHTESIIYYLFDVPFYEGYDLRDASLVERRALLQKLFEAHAPDEIRFSDVFDVSPAEILDSACRLGLEGVIGKRKTSVYVSRRSQDWIKLKCKNRQEFVIGGYTDPKGTRKGIGSLLLGYYDEDRKLRYAGNVGAGFSDKTLEDLRARLDRIALTDSPFVKANGLDKNAHWVEPRLIAEVSFGEWTRGGHIRHSVFHGLRSDKKADVIVREKPVHPAAKSAPASAIPKSLKVTNPDRVIDPSTGFTKVDLIRYYALVAPLMLPHLARRPVSLVRAPEGVSGELFFQKHWEKENMPGIEQLDPSLDPDHPPLLEVSTAEGLLSAVQMNVIEFHTWNATKNVIGKPDRIAFDLDPGSGVEWALIQESAQLVNVFLRELGLKSFLKTSGGKGLHIVVPIRRLRDWDTVKGFSQAIVQHLAKTIPTRFTAKSGPRNRVGKIFIDYLRNGFGATTVSAWSVRARPGLGVSVPLAWEELSSLKSSTRWSASNIHERLDKGNDPWADYAETNQSIVPAMKKLGFTPSSKA”, the protein production entry is “failed”. The same measure for “MTNIQKRFYKGRVALNVLANNIENAKDIFEAAEGYVVVGVLSKDYPTVEEAVTAMKAYGKEIDDAVSIGLGAGDNRQAAVVAEIAKHYSGSHINQVFPSVGATRANLGGKDSWINSLVSPTGKVGYVNISTGPISAAGEEKAIVPIKTAIALVRDMGGNSLKYFPMKGLAHEEEYRAVAKACAEEGFALEPTGGIDKENFETILRIALEANVEQVIPHVYSSIIDKETGNTKTEDVRELLAVVKKLVDQYA”: “not failed”; for “MTNKYIKLCFIDLVDLKKMSKQNLKIVLFHGFMAREHMQRHWLCYLKKLGYSDIHLYGHLSSAEMLAKQIHSTQNSAQKLVLFGYSQGGFQAVKVAQAFEQLQLPVDLLITIAAGGKGRLLPKQWHYNPRHIPQNVVKSLNFFSLSDSLGTDRCYRDNLIQASHHDQCIENIIFDQSAQVGHIELSRCYSKQRIHGLVKQHLISRIEYELSILE”: “failed”. Turning to “MTNLLVIGATGNIGQPLIRDLQDDPDVHLFAGVHNSEHAKQALNGLKVQVRRFDFLDPATFEQALADIDKVFFVRPPQLAKPKEDMYPFLDALVARHVKQVVFVSLLGVAHNPMTPHHQIEKRIVELGLPYTFIRPSFFMQNLNTTHQADIVGHRDLFVPAGHARTSFIDTRDIGATAAVILRDPAYIGQKLDITGAQALTYADAAQIMTMELGVPITYSKPSLWRFRKVMLQRGLPKNYVNVMVMLYLITQLGNAKTVTTTLPNVLGRPAISFEQYVHDYRAEFLPKPLSLEHHHHHH”, the protein production entry was “failed”. As for “MTNNTDIKNQTNPMSGDLLRQIIRLGFPVAIQSALVAILALADVLMVSDFGKEATAAVGIASKWHFVAIMIMAGLASANGTLVAQYWGRNDAVSAKTVTGIAIRFGLKVLIPVTLIITLGSELIMRLQTSDTRVIELGATYLWYAFPVLLLTHIVIVLEASMRSSGDTVTPLLMGAMTIVLNIGLNFWLIKGGFGIPAMGVAGAAFATTISRLFQVLAMIAYMRWRKHWLLEVKEGSERPSLWLSYRRLALPMTLGALLWAIGTMVYQMIFGHMGTTELAVFSMLGPFESLCYSIFFGISVACSVMIGQSLGRDAFEQAEHMAKFFIKAVFVFGISIGALLLLNRELIIAALNLDNPELYPLAAPAVMILCCAIWLRMLNMIIINGIIRAGGDNVFCLRMDFIAMWMTGLPLCAIAAFVLGWEFKYVYALMIAEEVVKLALCYRRYTQKYWIKNLTVVTTS”, the entry is “not failed”. The same measure for “MTNPLNSTAANRSNQPSSDGISDGQITNEEAESLINKKNCSGHKLKEVTDSDTFSDNGKDDSDTKKRFHYHQDQRRMSLTSIVAVESPSSSNAPSRKTIDLGHGSDLIYIQRFLPFQQSWTFFDYLDKHIPWTRPTIRVFGRSCLQPRDTCYVASSGLTALVYSGYRPTSYSWDDFPPLKEILDAIYKVLPGSRFNSLLLNRYKGASDYVAWHADDEKIYGPTPEIASVSFGCERDFVLKKKKDEESSQARNKPTFVWCEPAGKTGDSGPAKKRLKRSSREDQQSLTLKHGSLLVMRGYTQRDWIHSVPKRAKAEGTRINLTFRLVL”: “not failed”; for “MTNQDNNHQLNHRIYHFEKIYKAIKHVIVFIFMIFIAIVAIAVIAMSLYFHHLTKTSDSLSDDALIKKVRQIPGDELLDHNNKNLLYEYNHSQNSLIIGPKTSSPNVIKALTSSEDTLFYKHDGILPKAILRAMIQDIFNTDQSSGGSTITQQLVKNQVLTNEKTYSRKANELRLAIRLEHLLSKDEIIYTYLNIVPFGRDYNGANISGIASASYSLFGIPPKDLSIAQSAYLIGLLQSPYGYTPYEKDGTLKSDKDLKYSIQRQHYVLKRMLIEDQITEKEYNDALKYDIKSHLLNRKKR”: “failed”. As for “MTNQSHDDDDDDEQLPRSLFRLVSLPQKTMTNQTHDDDDDDEQLPLSLTLGSTSYSSQIRPVKSPVPIAPPPEFPGPVTTWPTPADFLATRSMVPDPPPPSHQIPLWMSNYFQQTPNPPQLVTHFFPPSGLAPPSSNLTPPPVKRPVTGSVRIYRSRSTVSKKSDTISPPFPWATNRRGEIQSLEYLESNQITTITGEVQCRHCEKVYQVSYNLRERFAEVVKFYLTEKRKMRDRAHKDWAYPEQRRCELCGREKAVKPVIAERKSQINWLFLLLGQTLGFCTLEQLKNFCKHSKNHRTGAKDRVLYLTYMGLCKMLQPKSDLFTCVAGKR”, the entry is “failed”; as for “MTNSGIILVASAALFWGLSGGIAGILINDDWNAVLVSFCRGAVGLIFVLMWLVLRPRNSGFTNGKLWLWSIIAGFGVSGNFAFYFFSISESSVAVAATLMYCAPIFVYLISFAIKIERPTLSKCAAILLVMAGVVLLTRVYQIDSSGITPIGVIAGLLSGMSLALFIFGFKYAARQGSPQAVLAIAFSTLTLALGTLIDIEEAGRVVNSADWPLFAILGVLGGGASFILYIIGLRRTLPALASIVATIEPVTAALFGVIILGEVLAYTQVLGMLIILATVTALGVYSSKQ”, “failed”. Regarding “MTNSKQKLVLASGSPRRLELLHQIGIEPARLMPMDIDETPVKLEHPRTLCRRLSQQKAEAAQAALKSEQAWKDAYVLGSDTVVAVGRRIVGKAEYTEEASAALHLLSGRSHWVYTGICLVTPDGKIRQKVAETKVRFKRLSTREIDAYIASGQWRGKAGAYGIQGIAGAFVQKLTGSYTNVVGLPLYETMSLLSGEGFEVTSGWLEG”, the protein production entry is on record as “failed”. As for “MTNSNNRQSEYPVDPLFLDRWSPRAFDGSPMPKEHLLTILDAAHWAPSASNHQPWRFVYAHKDSEDWPLFVELLMEGNQKWAKNASVLLFVISRDHTISHEGEKKPSATHSFDAGAAWFSLAMQAHLLGYHAHGMGGIFKDRIVEKLDIPDGFKVEAGVAIGTLTDKSILPDDLAEREVPSKRVPLADVAFEGRFTGKAD”, the protein production entry was “not failed”. As for “MTNTIKKISTAQTYLNNNEIEKIIEVSKSLDLMASFYEADVFIDVLSKFDDEAIVVAHGRPKEKSMYCENVIGKKALIENEPGVIKCLKTGERVRDIKALTQEYKLVKQNIQPITLDDKVLAVLIVEKDISSEVKNEFNASEDEENKNLHQFIKLIGNNDFLVDNLNSAILIFDKNGKLKIKNRIATEIYKNLGFGYDIQDMHYNDLDIETNTFENILMDENYDETNEVSIGNMFFKIKTIYIKDDEFKVCKIVQDISDLKRKEEELVLKTVAIREAHHRVKNNLHTVISIIKKQSRLSQNDEVKQCLDNIINRVFAILSTHYLLSKEVDNNISIREGINLLVSNIQGGYLFSKDIDIRITGEDFKISGEKATAILLVINEILQNCYDHAFSDREHGTIQILINKDNDYRNIAIIDDGIGFDSNNINKNSLGTYIIDSYITQMLKGNIERKSSENGTEVLITIPTQINI”, the entry is “failed”.
